Test results: the nanobody polyreactivity screen of Harvey et al. (2022)

Assay: yeast display, Sf9 membrane polyspecificity reagent, FACS + sequencing; frameworks hold sequencing errors
How it was run: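 Synthetic nanobody libraries on Saccharomyces cerevisiae BJ5465 were galactose-induced for 36–48 hours, stained 1 hour at 4 °C with 10% biotinylated, detergent-solubilized Sf9 membrane reagent and enriched on streptavidin microbeads. FACS then separated cells into low and high (top ~1%) gates by anti-HA (expression) and streptavidin (reagent binding) fluorescence. Genes were colony-PCR amplified, MiSeq 2 × 250 sequenced and CDR-length filtered. A clone's polyreactivity label is that of its gate of origin.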

Sequence | polyreactivity (PSR sort gate)
QDQLVESAGGLVQAGGSLRLSCAASGSTFVRNAMGWYRQEPGKERELVAAISVDGSSTYYADSVKGRFTISRDIAKNTVYLQMNSLKPEVTAVYYCNADWDYRDFYAITYDFWGQGTQVTVSS | low polyreactivity
QDQLVESAGGLVQAGGSLRLSCAATASTFHLYAMGWYRQAAGKERELVASIRWSGGSTYYADSVKGRFTISRDNAKNTVYLQMNSLKPEDTAVYYCASEAVPYWSWGRPMYYWGQGTQVTVSS | high polyreactivity
QDQLVESAGGLVQAGGSLSLSCAASGNIFVYYAMGWYRQAPGKERELVAAITSDVSTYYADSVKGRFTISRDNAKNTVYLQMNSLKPEDTAVYYCATTGYGSYVIYGGQGTQVTVSS | low polyreactivity
QDQLVESCGGLVQAGGSLRLSCASSGIIFVNYAMGWYRQAPGKERELVAAITTSGGSTYYADSVKGRFTISRDNAKNTVYLQMNCLKPEDTAVYYCAKISSLFKHVVRYDYWGQGTQVTVSS | low polyreactivity
QDQLVESGAGLVQAGRSLRLSCAASGSIFRWYAMGWYRQAPGKERELVAAISTSGGNTYYADSVKGRFTISRDNAKNTVYLEMKSLIPEDTAVYYCNALWYRSLYYRYDYWGQVTQVTVSS | high polyreactivity
QDQLVESGGALVQAGGSLRLSCAASGFTYYGNAMGWYRQAPGKERELVAAISSSGGITYYADSVKGRFTISRDNAKNTVYLQMNSLKPEDTAVYYCAAVQGTPDYEYDSWGQGTQVTVSS | low polyreactivity
QDQLVESGGCLVQAGGSLRLSCAASGSIFTDNVMGWYRQATGKERELVAAITSTGGNTYYADSVKGRFTISRDNAKNTVYLQMNSLKREDTAVYYCNKDVARYPYGKFDYWGQGTQVTVSS | low polyreactivity
QDQLVESGGCLVQAGGSLRLSCAAYGSTFYRYTMGWYRQAPGKERELVAAISRSGGRTYYADSVKGRFTLSRDNAKNTVFVQINSLKPEDTAVYYCNAEIASSAVQAQEGDYWGQGTQVTVSS | high polyreactivity
QDQLVESGGGIVQAGGSLRLSCAASGFIFSTNAMGWYRQAPGKERELVAAITGRGTNTYYADSVKGRFTISRDNAKNTVYLQMNSLKPEDTAVYYCAADNKDSEDDYWGQGTQVTVSS | high polyreactivity
QDQLVESGGGIVQAGGSLRLSCAASGFIFYTYAMGCYRQAPGKESELVAAISSRGTRTYYADSVKGRFTISRDNAKNTVFLQMNSLKPEDTAVYYCAAVSYSYEYPSFDMGYWGQGTQVTVSS | high polyreactivity
QDQLVESGGGIVQAGGSLRLSCAASGSTFTWYAMGWYLQDPGKEREFVAAITRSGDSTYYADSVKGRFTISRDNAKNTVYLEMNSLKPEDTAVYYCAASNDYLRGWFDYWGQGTQVTVSS | low polyreactivity
QDQLVESGGGLDQAGCILRLSCAASGITFSVYTMGWSRQAPGKERELVAANDSDGITNYADSVKGRFTISRDNAKNTDYLQMNSLKPEDTAVYYCNAIADGSSSRWRPYSKFYYWGKGTQVTVSS | low polyreactivity
QDQLVESGGGLDQAGGSLRLSCAASGSTFPGYAMGWYRQAPGKERELVASIYTGGSTYYADSVKGRFTISRDNAKNTVYLQMNSLKPEDTAVYYCAADSYNVSSLLYYWGQGTQVTVSS | low polyreactivity
QDQLVESGGGLDQAGGSLRLSCAASGSTLGNNAMGWYRQAPGKERELVAAISTRGGSTYYADSVKGRFTISRDNAKNTVYLQMNSLKPEDTAVYYCAADFGQYHGDVRKMDYWGQGTQVTVSS | low polyreactivity
QDQLVESGGGLVQAGCSLRLSCAASGFIFPNYAMGWYRQAPGKERELVAAISTDGSTNYADSVKGRFTISRDNAKTTVYLQMNSLKTEDTAVYYCAKYGRVKPQRYDYDYWGQGTQVTVSS | high polyreactivity
QDQLVESGGGLVQAGGILRLSSSASGFTFAYYAMGWYRQSTGKERQLVAAISSRGGSTYYADTVKGRFSISRDNAKNTVYLQMNILKPEDTAVYYCAAEFGLWPYEYGYCGQGTQVTVSS | high polyreactivity
QDQLVESGGGLVQAGGRLRLSCAASGRIIRTYARGWDRQAPGKERELVAAITNGDSTNYADSVMGRFTMSRDNAKNTVYLQMNSLKPEDTAVYYCAVGAVVPGRRRRTYYYWGQGTQVTVSS | high polyreactivity
QDQLVESGGGLVQAGGSHRLTCAASGFIFAYYAMGWYRQAPGKERELVAAISRSGARTYYADSVKGRFTISRDNAKNTVYLQMKSLKPEDTAVFYCSARIIVDVVGTKYYYWGQGTQVTVSS | high polyreactivity
QDQLVESGGGLVQAGGSLRISCAASGRIFDYNAMGWYRQAPGKERELVAAITGGGNTTYADSVKGRFTISRDNAKNTVYLQMNSLKPEDTAVYYCAADVVSVYRLSYKPLGYYWGQGTQVTVSS | low polyreactivity
QDQLVESGGGLVQAGGSLRLICAASGFTITTYAMGWYRQAPGKERELVASISYSGGRTYYADSVKGRFTISRDNAKNTVYLQLNSLKPEDTAVYFCAAVGVRNRAPSRGGYWGQGPQVTVSS | high polyreactivity
QDQLVESGGGLVQAGGSLRLICAASGITFLVNAMGWYRQAPGKERELVAGITSGDSTNYADSVKGRFTISRDNAKNTVYLQMNSLKPEDTAVYYCATVLYVGSGGGGILWDDDYWGQGTQVTVSS | low polyreactivity

Sequence | polyreactivity (PSR sort gate)
QDQLVESGGGLVQAGGSLRLICAASGSIFTSNAMGWYRQAAGKERELVAAITSSGGSTYYADSVKGRFTISRDNAKNTVYLHMNSLKPEYTAVYYCAAAKFDLSFWLYYWGQGTQVTVSS | low polyreactivity
QDQLVESGGGLVQAGGSLRLICAASGYIFVYNAMGWYRQTPWKERELVAAITDGGGSTYADSVKGRFTISRDNAKNSVYLQMNSLKPEDTAVYYCSARYSDTTWYVLYYYWGQGTQVTVSS | low polyreactivity
QDQLVESGGGLVQAGGSLRLIFAASGSIFNGYAMGWSRQAPGKERELVADIRSGGSTYYADSVMGRFTISRDNAKNTVYLQMNSLKPEDTAVYYGAADTITDGYDYWGQGSQVTVSS | low polyreactivity
QDQLVESGGGLVQAGGSLRLPCAASGYIFFFNAIGWYRQAPGKERELVAAITRRGVSTYYADSVKGRFTISRDNAKNTVYLQMNSLNPEDTAVYYCATDHNHLGYYYWGQGTQVTVSS | low polyreactivity
QDQLVESGGGLVQAGGSLRLRCAASGFTFGCYAMGWYRQAPGKERELVASITSGGSTNYADSVKGRFTISRDNAKNTVYLQMNTLKPEDTAVYYCAKDLLGFDKVQYKIEDYWGQGTQVTVSS | low polyreactivity
QDQLVESGGGLVQAGGSLRLSCAASGFIFSWYAMGWYRQPPGKERELVAGISIRGGRTYADSVKGRFTISRDNAKNTVYLQMNSLKPDDTAVYYCATRSYRPYHSLYDYWGQGTQVTVSS | high polyreactivity
QDQLVESGGGLVQAGGSLRLSCAASGFILKYYAMGWYRQAPGKEREFVAAITVSGGSTYYADSVKGRFTISRDNAKNTVYLQMNSLKPVDTAVYYCNADYPRGGAGLPDYWGQGTQVTVSS | low polyreactivity
QDQLVESGGGLVQAGGSLRLSCAASGFNFMSKGMGWYRQAHGKETEFVAVITSSTGSTSYADSVKGRFTISRDNAKNTVYLQMNSLKPEDTGVFYCAADAYYYYAGGHYYWGQGTQVTVSS | low polyreactivity
QDQLVESGGGLVQAGGSLRLSCAASGFTCRYYAMGWYRQAPGKERELVAAITGSGTRTYYADSVKGRFTISRDNAKNTVYLQMNSLKPEETAVYYCYPPRQPRWFDYWGQGTQVTVSS | high polyreactivity
QDQLVESGGGLVQAGGSLRLSCAASGFTFDENAMGWYRQAPGINYSGASTYYADSVKGRFTISRDNAKNTVYLQMNSLKPEDTAVYYCAAEVVAQMNYWGQGTQVTVSS | low polyreactivity
QDQLVESGGGLVQAGGSLRLSCAASGFTFGNNARGWYRQAPGKERQFVATISRRGGSTYYADSVKGRFTISRDNAKYTVYLQMNSLKPEDTAVYSCAVDRAGIKLAAGYDYWGQGTQVTVSS | high polyreactivity
QDQLVESGGGLVQAGGSLRLSCAASGFTFYGYAMGWYRQAQGKERELVAAISSSGGRTYYADSVKGRFTISRDNAKNTVYLQMNSLKPEDTAVYYCAARARYIRGGGSRAYIGYYWGQGTQVTVSS | high polyreactivity
QDQLVESGGGLVQAGGSLRLSCAASGGIFPDNAMGWSRKAPGKERELVATISWSGGSTYADSVKWRFTISRDNAKNTVYLQMNRLKPEDTAVYYCAAGSAYLWGQGTQVSVSS | low polyreactivity
QDQLVESGGGLVQAGGSLRLSCAASGGIFYQYAMGWYRQAPGKERELVATITSGGRTSYADSVKGRFTISRDNAKNTFYLQMNSLNPEDTAVYYCAATTGWYGARYGYWGQGTQVTVSS | high polyreactivity
QDQLVESGGGLVQAGGSLRLSCAASGIIFAKYAMGWSRQAPGNERELVAAINARGGSTYYADSVKGRFTISRDNAMNTVYLQMNSLKPEDTAVYYCAAERRSRFGNGVTYDYWGQGTQVTVSS | high polyreactivity
QDQLVESGGGLVQAGGSLRLSCAASGIIFPQYTMGWYRQAPGKERELVAVITSGGSTYYADSVKGRFTISRDNAKNTVYLQMNSLKTEDTAVYYCAADAFYKFDYWGQGTQVTVSS | high polyreactivity
QDQLVESGGGLVQAGGSLRLSCAASGIILGGYVMGWYRQAPGKERELVAALSYSGGRTDYADSVKGRFTISRDKAKNTVYLQMNILNPEDTAVYYCATEYWRYHGITKGYTRYDYWGQGTQVTVSS | high polyreactivity
QDQLVESGGGLVQAGGSLRLSCAASGITFKFYAMGWYRQAPGKERELVAAISWSGGSTYYADSVKGRFTISRDNAKNTVYLQMNSLKPEDTAVYYCAAYTGWIYHTRYRRDYWGQGTQVTVSS | high polyreactivity
QDQLVESGGGLVQAGGSLRLSCAASGITFNRYAMGWYRQAPGKERELVAAISRTGGSTYYADSVKARFTISRDNAKNTVYLQMNSLKPEDTAVYYCASRYTKGMYYWGQVTQVTVSS | high polyreactivity
QDQLVESGGGLVQAGGSLRLSCAASGITFQRYAMGGYRQAPGKERELVAVINFRGSNTFYADSVKGRFTISRDNAKNSVYLQMNSLIPEDTAVYYCAASYVIDIRGYGYWGQGTQVTVSS | low polyreactivity
